This note sets out measurements from publication PMC3857783, “Human Fanconi Anemia Complementation Group A Protein Stimulates the 5’ Flap Endonuclease Activity of FEN1” (PLoS ONE, 2013).

This experiment has as its target Flap endonuclease 1 (FEN1) (human (endogenous in RA3087 cells), UniProt P39748-1 1-380). The experiment in a line: cell-based or functional assay.

Sequence of Flap endonuclease 1 (FEN1) (P39748 whole entry): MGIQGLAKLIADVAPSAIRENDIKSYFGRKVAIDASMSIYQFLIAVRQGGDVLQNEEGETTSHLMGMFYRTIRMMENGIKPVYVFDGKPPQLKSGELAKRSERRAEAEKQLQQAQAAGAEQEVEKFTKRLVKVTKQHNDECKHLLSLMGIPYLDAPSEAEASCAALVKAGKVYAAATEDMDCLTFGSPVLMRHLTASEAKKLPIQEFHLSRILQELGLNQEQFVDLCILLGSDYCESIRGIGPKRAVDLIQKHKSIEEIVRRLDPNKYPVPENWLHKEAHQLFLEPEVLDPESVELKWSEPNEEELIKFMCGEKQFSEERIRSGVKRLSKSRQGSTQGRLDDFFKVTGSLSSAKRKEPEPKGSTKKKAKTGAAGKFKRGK

B1: FLAG-FANCA (human Fanconi anemia complementation group A protein) (natural protein, UniProt O15360-1 1-1455, looked up)
chain: MSDSWVPNSASGQDPGGRRRAWAELLAGRVKREKYNPERAQKLKESAVRLLRSHQDLNALLLEVEGPLCKKLSLSKVIDCDSSEAYANHSSSFIGSALQDQASRLGVPVGILSAGMVASSVGQICTAPAETSHPVLLTVEQRKKLSSLLEFAQYLLAHSMFSRLSFCQELWKIQSSLLLEAVWHLHVQGIVSLQELLESHPDMHAVGSWLFRNLCCLCEQMEASCQHADVARAMLSDFVQMFVLRGFQKNSDLRRTVEPEKMPQVTVDVLQRMLIFALDALAAGVQEESSTHKIVRCWFGVFSGHTLGSVISTDPLKRFFSHTLTQILTHSPVLKASDAVQMQREWSFARTHPLLTSLYRRLFVMLSAEELVGHLQEVLETQEVHWQRVLSFVSALVVCFPEAQQLLEDWVARLMAQAFESCQLDSMVTAFLVVRQAALEGPSAFLSYADWFKASFGSTRGYHGCSKKALVFLFTFLSELVPFESPRYLQVHILHPPLVPGKYRSLLTDYISLAKTRLADLKVSIENMGLYEDLSSAGDITEPHSQALQDVEKAIMVFEHTGNIPVTVMEASIFRRPYYVSHFLPALLTPRVLPKVPDSRVAFIESLKRADKIPPSLYSTYCQACSAAEEKPEDAALGVRAEPNSAEEPLGQLTAALGELRASMTDPSQRDVISAQVAVISERLRAVLGHNEDDSSVEISKIQLSINTPRLEPREHMAVDLLLTSFCQNLMAASSVAPPERQGPWAALFVRTMCGRVLPAVLTRLCQLLRHQGPSLSAPHVLGLAALAVHLGESRSALPEVDVGPPAPGAGLPVPALFDSLLTCRTRDSLFFCLKFCTAAISYSLCKFSSQSRDTLCSCLSPGLIKKFQFLMFRLFSEARQPLSEEDVASLSWRPLHLPSADWQRAALSLWTHRTFREVLKEEDVHLTYQDWLHLELEIQPEADALSDTERQDFHQWAIHEHFLPESSASGGCDGDLQAACTILVNALMDFHQSSRSYDHSENSDLVFGGRTGNEDIISRLQEMVADLELQQDLIVPLGHTPSQEHFLFEIFRRRLQALTSGWSVAASLQRQRELLMYKRILLRLPSSVLCGSSFQAEQPITARCEQFFHLVNSEMRNFCSHGGALTQDITAHFFRGLLNACLRSRDPSLMVDFILAKCQTKCPLILTSALVWWPSLEPVLLCRWRRHCQSPLPRELQKLQEGRQFASDFLSPEAASPAPNPDWLSAAALHFAIQQVREENIRKQLKKLDCEREELLVFLFFFSLMGLLSSHLTSNSTTDLPKAFHVCAAILECLEKRKISWLALFQLTESDLRLGRLLLRVAPDQHTRLLPFAFYSLLSYFHEDAAIREEAFLHVAVDMYLKLVQLFVAGDTSTVSPPAGRSLELKGQGNPVELITKARLFLLQLIPRCPKKSFSHVAELLADRGDCDPEVSAALQSRQQAAPDADLSQEPHLF
Consider B1, for which the “stimulation of FEN1 5' flap endonuclease activity on the 15-nt DNA flap (2 nM substrate, 0.2 nM purified FEN1) by purified His6-FANCA at 2.5, 5, 10 nM; fold over FEN1 alone” value came to 4.5 fold and the “stimulation of FEN1 5' flap endonuclease activity on the 15-nt RNA flap (2 nM substrate, 0.1 nM purified FEN1) by purified His6-FANCA at 2.5, 5, 10 nM; fold over FEN1 alone” value worked out at 8 fold.
